Experimental data as given in paper PMC5740162, “Cryo-EM structure of a licensed DNA replication origin” (Nature Communications, 2017).

Tests used:
Mcm4 = target: T1, Mcm4 (budding yeast, UniProt P30665 1-933); test: cryo-EM structure; MCM loaded on bead-immobilised biotinylated 2.8 kb ARS1 DNA with ORC, Cdc6, ATP; with or without DDK; high-salt wash (0.3 M KCl); DNA released by MseI in EM buffer (25 mM Hepes 7.6, 5 mM Mg-acetate, 250 mM K-glutamate); lacey carbon grids, Titan Krios/K2; details: both partners purified
T1 construct: Mcm4, subunit of the yeast Mcm2-7 helicase; Subunit as it stands in the loaded, unmodified MCM double hexamer
T1 sequence: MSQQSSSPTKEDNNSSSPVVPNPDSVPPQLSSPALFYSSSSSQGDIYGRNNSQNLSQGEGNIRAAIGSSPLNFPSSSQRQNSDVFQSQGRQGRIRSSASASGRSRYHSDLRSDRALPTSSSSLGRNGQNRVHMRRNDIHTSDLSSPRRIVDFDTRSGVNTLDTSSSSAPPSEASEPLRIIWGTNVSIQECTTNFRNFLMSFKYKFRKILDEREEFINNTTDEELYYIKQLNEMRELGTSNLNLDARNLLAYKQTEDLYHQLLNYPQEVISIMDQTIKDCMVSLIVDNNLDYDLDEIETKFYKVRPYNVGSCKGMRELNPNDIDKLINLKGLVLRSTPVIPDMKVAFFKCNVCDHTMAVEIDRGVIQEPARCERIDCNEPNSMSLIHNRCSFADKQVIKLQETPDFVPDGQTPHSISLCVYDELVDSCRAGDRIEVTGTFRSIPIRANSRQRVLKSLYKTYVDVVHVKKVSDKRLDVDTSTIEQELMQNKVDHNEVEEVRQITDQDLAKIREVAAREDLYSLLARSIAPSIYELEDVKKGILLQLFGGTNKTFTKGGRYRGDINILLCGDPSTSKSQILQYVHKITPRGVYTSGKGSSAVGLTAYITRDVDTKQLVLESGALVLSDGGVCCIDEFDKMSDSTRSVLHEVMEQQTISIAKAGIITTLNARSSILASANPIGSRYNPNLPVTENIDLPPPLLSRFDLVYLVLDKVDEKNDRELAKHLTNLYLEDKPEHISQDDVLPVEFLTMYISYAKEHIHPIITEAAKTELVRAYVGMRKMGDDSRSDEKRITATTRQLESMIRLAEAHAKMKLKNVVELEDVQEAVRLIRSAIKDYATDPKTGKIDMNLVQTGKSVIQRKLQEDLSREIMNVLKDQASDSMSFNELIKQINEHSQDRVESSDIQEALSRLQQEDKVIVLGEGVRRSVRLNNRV

Mcm3 = target: T2, Mcm3 (budding yeast, UniProt P24279 1-971); test: as above; details: both partners purified
T2 construct: Mcm3, subunit of the yeast Mcm2-7 helicase; Subunit as it stands in the loaded, unmodified MCM double hexamer; The complex was purified on calmodulin resin
T2 sequence (P24279 whole entry): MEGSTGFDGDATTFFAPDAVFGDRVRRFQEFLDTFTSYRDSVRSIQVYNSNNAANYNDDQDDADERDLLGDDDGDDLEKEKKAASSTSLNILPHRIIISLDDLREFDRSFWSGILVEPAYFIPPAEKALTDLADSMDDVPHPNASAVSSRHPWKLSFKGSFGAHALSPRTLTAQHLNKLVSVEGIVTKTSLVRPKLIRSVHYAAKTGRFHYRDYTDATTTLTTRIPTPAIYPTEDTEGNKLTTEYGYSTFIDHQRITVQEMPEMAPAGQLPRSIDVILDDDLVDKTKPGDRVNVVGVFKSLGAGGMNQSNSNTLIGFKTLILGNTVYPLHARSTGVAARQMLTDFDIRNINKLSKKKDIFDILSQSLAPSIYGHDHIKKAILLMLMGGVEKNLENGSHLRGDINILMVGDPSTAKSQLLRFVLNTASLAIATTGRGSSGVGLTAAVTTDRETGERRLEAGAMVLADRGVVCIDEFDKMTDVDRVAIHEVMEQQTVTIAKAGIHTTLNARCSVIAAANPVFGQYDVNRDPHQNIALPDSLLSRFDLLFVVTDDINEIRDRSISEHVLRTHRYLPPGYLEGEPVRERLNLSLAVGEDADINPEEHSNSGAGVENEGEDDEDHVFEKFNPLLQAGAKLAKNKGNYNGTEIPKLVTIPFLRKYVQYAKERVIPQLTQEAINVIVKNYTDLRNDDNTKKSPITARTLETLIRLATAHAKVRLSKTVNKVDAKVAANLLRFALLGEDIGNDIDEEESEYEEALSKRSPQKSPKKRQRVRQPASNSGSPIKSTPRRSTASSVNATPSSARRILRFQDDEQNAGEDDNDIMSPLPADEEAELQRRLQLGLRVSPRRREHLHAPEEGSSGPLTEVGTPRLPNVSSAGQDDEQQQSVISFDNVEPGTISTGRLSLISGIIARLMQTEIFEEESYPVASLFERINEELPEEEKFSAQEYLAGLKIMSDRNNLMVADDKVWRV

B1: Mcm7 (natural protein, budding yeast)
chain: MSAALPSIQLPVDYNNLFNEITDFLVTFKQDTLSSDATRNENEDENLDAENIEQHLLEKGPKYMAMLQKVANRELNSVIIDLDDILQYQNEKFLQGTQADDLVSAIQQNANHFTELFCRAIDNNMPLPTKEIDYKDDVLDVILNQRRLRNERMLSDRTNEIRSENLMDTTMDPPSSMNDALREVVEDETELFPPNLTRRYFLYFKPLSQNCARRYRKKAISSKPLSVRQIKGDFLGQLITVRGIITRVSDVKPAVEVIAYTCDQCGYEVFQEVNSRTFTPLSECTSEECSQNQTKGQLFMSTRASKFSAFQECKIQELSQQVPVGHIPRSLNIHVNGTLVRSLSPGDIVDVTGIFLPAPYTGFKALKAGLLTETYLEAQFVRQHKKKFASFSLTSDVEERVMELITSGDVYNRLAKSIAPEIYGNLDVKKALLLLLVGGVDKRVGDGMKIRGDINVCLMGDPGVAKSQLLKAICKISPRGVYTTGKGSSGVGLTAAVMKDPVTDEMILEGGALVLADNGICCIDEFDKMDESDRTAIHEVMEQQTISISKAGINTTLNARTSILAAANPLYGRYNPRLSPLDNINLPAALLSRFDILFLMLDIPSRDDDEKLAEHVTYVHMHNKQPDLDFTPVEPSKMREYIAYAKTKRPVMSEAVNDYVVQAYIRLRQDSKREMDSKFSFGQATPRTLLGIIRLSQALAKLRLADMVDIDDVEEALRLVRVSKESLYQETNKSKEDESPTTKIFTIIKKMLQETGKNTLSYENIVKTVRLRGFTMLQLSNCIQEYSYLNVWHLINEGNTLKFVDDGTMDTDQEDSLVSTPKLAPQTTASANVSAQDSDIDLQDA
notes: Mcm7, subunit of the yeast Mcm2-7 helicase; Subunit as it stands in the loaded, unmodified MCM double hexamer
**Q.** Does B1 bind (Mcm4)?
**A.** Result: binds

**Q.** Does B1 bind (Mcm3)?
**A.** Result: binds
